The target of assay [1] is T1, AGL55, 55-mer A-domain peptide of PAM_(NS88.2) (Streptococcus pyogenes (GAS isolate …)). Briefly: ITC; 4°C. In general terms: In ITC the heat of successive injections is recorded.
The target of assay [2] is T1, AGL55, 55-mer A-domain peptide of …. Nature of the assay: ITC; 25°C.
The target is the same in assay [3]. Nature of the assay: ITC; 37°C.

B1: K2hPg, kringle-2 domain of human plasminogen (domain or fragment)
chain: YVEFSEECMHGSGENYDGKISKTMSGLECQAWDSQSPHAHGYIPSKFPNKNLKKNYCRNPDRDLRPWCFTTDPNKRWEYCDIPRCAA
As a reminder, the Kd is the constant that tells how readily two partners part at equilibrium. Read a low Kd as a tighter complex. Regarding B1, the results for the Kd in assay [1], in assay [2] and in assay [3] were 0.0026 µM, 0.031 µM and 0.236 µM, respectively.
